The results in this text go back to PMC4498601, “Two high-mobility group box domains act together to underwind and kink DNA”.

The target in the data set is T1, HMGB1 box A (Rattus norvegicus (rat), UniProt P63159 8-81).
T1 sequence: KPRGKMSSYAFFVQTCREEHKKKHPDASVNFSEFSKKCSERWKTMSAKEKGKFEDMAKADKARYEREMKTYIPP
Put plainly: X-ray crystallography; 2.0 A; 40 mM MgCl2, 50 mM sodium cacodylate pH 6.0, MPD; two box A per kinked duplex, one further duplex almost unbound; EMSA: 0.33x TBE (30 mM Tris-borate, 0.66 mM EDTA), 3% glycerol, 30 min incubation (temperature not stated), 6% native PAGE at 4 C; crystal complex: 1.6 mM protein, 0.8 mM DNA, about 1 h at 4 C. To be noted: protein: recombinant; tags: GST tag removed by thrombin; chain copies: 2; blunt; self-complementary decamer, 2 copies of the strand. Background: A gel shift assay detects complexes by their altered migration in electrophoresis.

B1: d(ATATCGATAT)2 (dsDNA)
DNA 1: ATATCGATAT
DNA 2: ATATCGATAT
Take B1: the binding result is “binds”.
